Reference: paper PMC3369926, “TRAM Is Involved in IL-18 Signaling and Functions as a Sorting Adaptor for MyD88” (PLoS ONE, 2012)

T1: GST-IL-18Rβ-TIR (amino acid residues 407-599) (UniProt O95256 407-599)
T1 construct: IL-18Rβ (formerly IL-1AcPL), cytosolic TIR domain, residues 407-599; also called IL-18Rβ TIR domain; IL-1AcPL TIR; source: purified as GST fusion protein (pGEX vector), by methods previously described
T1 sequence (looked up): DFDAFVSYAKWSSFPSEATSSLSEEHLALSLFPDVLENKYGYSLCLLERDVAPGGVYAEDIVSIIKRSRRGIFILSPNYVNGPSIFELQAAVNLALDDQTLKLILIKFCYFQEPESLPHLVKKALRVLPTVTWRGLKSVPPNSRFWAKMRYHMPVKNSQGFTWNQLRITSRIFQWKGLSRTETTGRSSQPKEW

B1: TRAM-TIR (amino acid residues 66-235) (domain or fragment, human, UniProt Q86XR7 66-235, looked up)
chain: EEMFEEEAEEEVFLKFVILHAEDDTDEALRVQNLLQDDFGIKPGIIFAEMPCGRQHLQNLDDAVNGSAWTILLLTENFLRDTWCNFQFYTSLMNSVNRQHKYNSVIPMRPLNNPLPRERTPFALQTINALEEESRGFPTQVERIFQESVYKTQQTIWKETRNMVQRQFIA
notes: TRAM (TICAM-2), human, TIR domain, residues 66-235; also called TIR domain of human TRAM; TRAM TIR domain; source: purified; subcloned into a pGEX vector, obtained by a similar procedure as previously described for the MyD88-TIR
B2: GST-MyD88-TIR (wild type, amino acid residues 148-296) (domain or fragment, UniProt Q99836 148-296, looked up)
chain: TTLDDPLGHMPERFDAFICYCPSDIQFVQEMIRQLEQTNYRLKLCVSDRDVLPGTCVWSIASELIEKRCRRMVVVVSDDYLQSKECDFQTKFALSLSPGAHQKRLIPIKYKAMKKEFPSILRFITVCDYTNPCTKSWFWTRLAKALSLP
notes: MyD88, TIR domain, amino acid residues 148-296; also called wild-type MyD88-TIR; MyD88 TIR domain; source: purified as GST fusion protein (pGEX vector), by methods previously described
B3: GST-MyD88-TIR R196A (148-296) (domain or fragment, UniProt Q99836 148-296, looked up)
chain: TTLDDPLGHMPERFDAFICYCPSDIQFVQEMIRQLEQTNYRLKLCVSDADVLPGTCVWSIASELIEKRCRRMVVVVSDDYLQSKECDFQTKFALSLSPGAHQKRLIPIKYKAMKKEFPSILRFITVCDYTNPCTKSWFWTRLAKALSLP
notes: MyD88, TIR domain, residues 148-296, with R196A; also called Site II mutant R196A; source: purified as GST fusion protein (pGEX vector), by methods previously described
B4: GST-MyD88-TIR R217A (148-296) (domain or fragment, UniProt Q99836 148-296, looked up)
chain: TTLDDPLGHMPERFDAFICYCPSDIQFVQEMIRQLEQTNYRLKLCVSDRDVLPGTCVWSIASELIEKRCARMVVVVSDDYLQSKECDFQTKFALSLSPGAHQKRLIPIKYKAMKKEFPSILRFITVCDYTNPCTKSWFWTRLAKALSLP
notes: MyD88, TIR domain, residues 148-296, with R217A; also called Site I mutant R217A; source: purified as GST fusion protein (pGEX vector), by methods previously described
B5: GST-MyD88-TIR R288A (148-296) (domain or fragment, UniProt Q99836 148-296, looked up)
chain: TTLDDPLGHMPERFDAFICYCPSDIQFVQEMIRQLEQTNYRLKLCVSDRDVLPGTCVWSIASELIEKRCRRMVVVVSDDYLQSKECDFQTKFALSLSPGAHQKRLIPIKYKAMKKEFPSILRFITVCDYTNPCTKSWFWTALAKALSLP
notes: MyD88, TIR domain, residues 148-296, with R288A; also called Site III mutant R288A; source: purified as GST fusion protein (pGEX vector), by methods previously described
B6: GST-IL-18Rα-TIR (amino acid residues 374-541) (domain or fragment, UniProt Q13478 374-541, looked up)
chain: TYDAFVSYLKECRPENGEEHTFAVEILPRVLEKHFGYKLCIFERDVVPGGAVVDEIHSLIEKSRRLIIVLSKSYMSNEVRYELESGLHEALVERKIKIILIEFTPVTDFTFLPQSLKLLKSHRVLKWKADKSLSYNSRFWKNLLYLMPAKTVKPGRDEPEVLPVLSES
notes: IL-18Rα (formerly IL-1Rrp), cytosolic TIR domain, residues 374-541; also called IL-18Rα TIR domain; IL-1Rrp TIR; source: purified as GST fusion protein (pGEX vector), by methods previously described

The binders below were run against T1, GST-IL-18Rβ-TIR (amino acid residues …) (assay: pull-down; GST fusion proteins held on Glutathione Sepharose 4B, three hours at 4°C; four washes with 20 mM potassium phosphate (pH 6.0), 100 mM KCl, 0.1 mM EDTA, 10 mM DTT, 0.5% Triton X100; SDS-PAGE with Coomassie staining; in triplicate). Conditions: both partners purified.

Binding result, binds:
B1

What follows are binders tested against B1 in the same assay as above. Conditions: both partners purified.

Binding result, binds:
B2
B3
B4
B5
B6
